Source: US20260235601, “APTAMER BASED DETECTION OF SARS-COV-2 INFECTION” (COUNCIL OF SCIENTIFIC & INDUSTRIAL RESEARCH, published 2026)
Numbering of substitutions follows the chain as printed.

B1: AptRBD5 (ssDNA)
DNA: ATGCGGATCCCGCGCATTTAAAGGGAGACCTATGGGTTTGTCCGATTAGCTGCGCGAAGCTTGCGC
B2: AptRBD8 (ssDNA)
DNA: ATGCGGATCCCGCGCATTTAAAGGGGGCGCTCCGTATGGGTTTGTCCGATTAGCTGCGCGAAGCTTGCGC
B3: AptRBD2 (ssDNA)
DNA: ATGCGGATCCCGCGCATATTAAAGGGGAGGCTCCCTATGGGTTTGTCCGATTAGCTGCGCGAAGCTTGCGC
B4: AptRBD9 (ssDNA)
DNA: ATGCGGATCCCGCGCCCGACGTCGCATGCTCCCGGCCGCCATGGCGGCCGCGGGAATTCGATTAGCGCGAAGCTTGCGC
B5: AptRBD4 (ssDNA)
DNA: ATGCGGATCCCGCGCATTTAAAGCGTCGATGCGTATGGGTTTGTCCGATTAGCTGCGCGAAGCTTGCGC
B6: AptRBD3 (ssDNA)
DNA: ATGCGGATCCCGCGCATTTAAAGCGGTTCGATGCGTATGGGTTTGTCCGATTCGGTGCGCGAAGCTTGCGC
B7: AptRBD6 (ssDNA)
DNA: B6 DNA with G26C, C53A, G55C

Target: SARS-CoV-2 spike receptor-binding domain (RBD) (SARS-CoV-2 (Wuhan strain), UniProt P0DTC2 P0DTC2:319-541)
Assay: ELONA
Conditions: tags: N-terminal His tag, pET-15b, E. coli BL21 Star (DE3), about 26 kDa

Binder	binding result	binding signal [absorbance]	activity [ng/mL]
B1	binds		
B2		0.75	
B3	binds		
ATTTAAAGCGGTTCGATGCGTATGGTTTGTCCGATTCGGT (ssDNA) [AptRBD3.1]			4
B4	binds		
B5	binds		
ATTTAAAGCGCTTCGATGCGTATGGGTTTGTCCGAT (ssDNA) [AptRBD6.1]			4
AGCGGTTCGATGCGTATGGTTTGTCCGAT (ssDNA) [AptRBD3.3]			4
B6		0.75	
B7		0.7	
ATTTAAAGGGGGCGCTCCGTATGGGTTTGTCCGATTAGCT (ssDNA) [AptRBD8.1]			8
ATTTAAAGCGGTTCGATGCGTATGGTTTGTCCGAT (ssDNA) [AptRBD3.2]			4
